Measured values reported in patent EP2138508A1 (Helmholtz-Zentrum für Infektionsforschung GmbH, dated 2009).

Assays:
[1] = biological target: Met receptor on MDCK cells (UniProt Q75ZY9 25-1382); assay: cell-based or functional assay
[2] = biological target: Met receptor on MK keratinocytes (mouse, UniProt P16056 25-1379); assay: cell-based or functional assay

B1: InIB321_Crys (InIB321 G206C A227C C242A, "crystal dimer") (ligand)
chain: ETITVPTPIKQIFSDDAFAETIKDNLKKKSVTDAVTQNELNSIDQIIANNSDIKSVQGIQYLPNVTKLFLNGNKLTDIKPLANLKNLGWLFLDENKVKDLSSLKDLKKLKSLSLEHNGISDINGLVHLPQLESLYLGNNKITDITVLSRLTKLDTLSLEDNQISDIVPLACLTKLQNLYLSKNHISDLRALCGLKNLDVLELFSQEALNKPINHQSNLVVPNTVKNTDGSLVTPEIISDDGDYEKPNVKWHLPEFTNEVSFIFYQPVTIGKAKARFHGRVTQPLKE
modifications: two intermolecular disulfides: Cys 206 of chain A with Cys 227 of chain B and vice versa
- cell scattering of MDCK cells, potency relative to HGF and InIBfl [1]: ~2 orders of magnitude
- stimulation of DNA synthesis in MK keratinocytes, activity relative to full-length InIB [2]: ~10 fold
